Results from paper PMC5789954 (Proceedings of the National Academy of Sciences of the …, 2018).

B1: CUB1-EGF-CUB2 fragment of C1s (domain or fragment)
chain: EPTMYGEILSPNYPQAYPSEVEKSWDIEVPEGYGIHLYFTHLDIELSENCAYDSVQIISGDTEEGRLCGQRSSNNPHSPIVEEFQVPYNKLQVIFKSDFSNEERFTGFAAYYVATDINECTDFVDVPCSHFCNNFIGGYFCSCPPEYFLHDDMKNCGVNCSGDVFTALIGEIASPNYPKPYPENSRCEYQIRLEKGFQVVVTLRREDFDVEAADSAGNCLDSLVFVAGDRQFGPYCGHGFPGPLNIETKSNALDIIFQTDLTGQKKGWKLRYHGDPM
modifications: N-linked carbohydrate at one site (density seen in the crystals)
B2: CUB1-EGF-CUB2 fragment of C1r (domain or fragment, UniProt P00736 18-307, looked up)
chain: SIPIPQKLFGEVTSPLFPKPYPNNFETTTVITVPTGYRVKLVFQQFDLEPSEGCFYDYVKISADKKSLGRFCGQLGSPLGNPPGKKEFMSQGNKMLLTFHTDFSNEENGTIMFYKGFLAYYQAVDLDECASRSKSGEEDPQPQCQHLCHNYVGGYFCSCRPGYELQEDTHSCQAECSSELYTEASGYISSLEYPRSYPPDLRCNYSIRVERGLTLHLKFLEPFDIDDHQQVHCPYDQLQIYANGKNIGEFCGKQRPPDLDTSSNAVDLLFFTDESGDSRGWKLRYTTEII
modifications: N-linked carbohydrate at two sites (density seen in the crystals)

Molecular target: the molecule itself
Assay: SEC

Protein | stoichiometry N
B1 | 2
B2 | 2
